Residue numbers refer to the chain shown, from its start.
B1: His-Halo-tagged cGAS single point mutant of Glu515 (natural protein)
chain: MQPWHGKAMQRASEAGATAPKASARNARGAPMDPTESPAAPEAALPKAGKFGPARKSGSRQKKSAPDTQERPPVRATGARAKKAPQRAQDTQPSDATSAPGAEGLEPPAAREPALSRAGSCRQRGARCSTKPRPPPGPWDVPSPGLPVSAPILVRRDAAPGASKLRAVLEKLKLSRDDISTAAGMVKGVVDHLLLRLKCDSAFRGVGLLNTGSYYEHVKISAPNEFDVMFKLEVPRIQLEEYSNTRAYYFVKFKRNPKENPLSQFLEGEILSASKMLSKFRKIIKEEINDIKDTDVIMKRKRGGSPAVTLLISEKISVDITLALESKSSWPASTQEGLRIQNWLSAKVRKQLRLKPFYLVPKHAKEGNGFQEETWRLSFSHIEKEILNNHGKSKTCCENKEEKCCRKDCLKLMKYLLEQLKERFKDKKHLDKFSSYHVKTAFFHVCTQNPQDSQWDRKDLGLCFDNCVTYFLQCLRTEKLENYFIPEFNLFSSNLIDKRSKEFLTKQIEYERNNAFPVFDEF
B2: His-Halo-tagged cGAS single point mutant of Asp465 (natural protein)
chain: B1 chain with D465A, A515E
B3: His-Halo-tagged cGAS single point mutant of Arg512 (natural protein)
chain: B1 chain with R512A, A515E

Biological target: SPSB3–ELOBC heterotrimeric complex (SPSB3 amino acids 83–326 with elongin B and elongin C) (human | , UniProt Q6PJ21 83-326; Q15370 1-118; Q15369 1-112)
Assay: BLI

Binder | Kd
B1 | 453 nM
B2 | 818 nM
B3 | 957 nM

Reference: PMC10972748 (2024)
